# Laboratory results taken from article PMC5704366.
# Target: mononucleosome assembled with an octamer lacking the H4 tail (human) (UniProt P0C0S8)
# Experiment: pull-down
substance,measurement,value
"HIV-1 integrase, wild type (from UniProt P12497 1148-1435) (enzyme)",percent less efficient binding than to native MN,50 to 60%
